The domain aggregation screens of Martell et al. (2025)

Assay: soluble fraction after stress (log2 fold change); higher = more stays soluble; pooled small domains, quantitative proteomics
Conditions: stress: 75 degC
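Further: 20 min heating vs room temperature control held 20 min.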

Sequence	soluble fraction (log2)
HMKALYHQLVDLLKKRMESGMIPHDKLPSERELTAQYGVSRTTVRLALQELENTGYIYRRHGKGTFVSDI	-2.85
HMKANIGDQVFTQLKDQIINGEWRPGDRIPSEAQLIQLFGVSRGTVRQAVQKLAGEGLIVTRHGEGSFVQG	-0.0329
HMKAQLQHIIGSNIKLARNTQGYTQEGLAERAEISVEHLKQVERGKKMLSVESLVNVANALQVSVDSLV	0.0141
HMKAQVKSVLDDIPGIGQTRRKALMRYFKSLEKIREASVEELKEADAMNERAAQSVYAFFHK	-0.775
HMKAQVKSVLDEIPGVGPTRRKALMKHFTSIEEIKQAEFETLLEAEGMNRAAAQSVYDFFHN	-0.232
HMKDESQLVGAEGKAVTPLRPTGVALIGEKRLDVLTEGEFIPRNSDIIVSRVEGNKIIVKLKN	0.00394
HMKDHLRFEILSFAGDLRNGVVKTRQEFETIFAFYDKYEEIITALKVHNGYVDSEFDFIKEKFKELKSK	-2.78
HMKDLQAISERMEEIISFAKANDNEISLFIVQDIIKNKKTGIDEDLLNMALYQIKEQGIKVLPA	-0.176
HMKDSIQIPNVVGMTIKDAQSQYGKSFSIIEQNRTESTKPAGTILEQTPAGGDTVSKRDNIIIRVVVSLG	-1.45
HMKDSKSALQEYALERKMGLPVYEVVDRSGPDHAPQFVIAVSLGEWRLEAKGASKRQAEQQAASLMLEEI	-0.174
HMKDYTIDDIINSKVEHPLGGYQSRFKVGEYEVSVVGGRQTNHGDFIHTFELAIFDKNNNFLRNLTPVTID	0.0559
HMKEATTSPLDGIPGIGSKRKKALLSHFGSARSVARADIPDLMRVDGISRQVAETIYGWFHN	-0.417
HMKEDFPLLEQLRYTGEGADVTGTAEKMESIQALRSAADSGGFRATLGDIQQIPGGGLRFTLSLRGSR	-0.0408
HMKEDNPIVLINLQAKEGEWVFKGTGLPYVGKYHQHKNGEYMIGIGVLNLNHELKPDEIIIPNPNK	-0.362
HMKEEDYEVFMRLINVRGIGPKSALNILGVISGQEMIQAIENDDIKRLKSLPGIGAKTAGQIVLDLKGKFV	-0.746
HMKEFIPPVLDDVLKFFSGSLLPDWENQGRLFFSHYNSQGWRKGTGVQVTDWDSLANKWILDEKIKRDARS	-0.489
HMKEGTIPPVVNRTLSDAEFVLKSYGYELGRVSEQHSDMPKDIVIKQSPEAGTVADPGTRVDVVVSIGKA	0.485
HMKEHDTLALRLTAILRKLNDGEKLVPRELAEEFNVGIRTIQRDLTERLSFLDLEKTNGAYSLPTRNL	-0.843
HMKEIIFRGIGEFILDYKSLVIEFLNKNNYANLSMDAPVDEVNKAVANNMLNEDFVTELLLFQRRVE	-4.14
HMKEILLITGKGLHSGQDDVYKSAQLSKLRYSVPEFIKSNLEISQLILSVETPLQKDGGDGALLIK	-0.0322
HMKEILVGVEPLSKKQIIIKKGIKGRSDYIIFEKKNYGLPENLKPEEVSIEIALKIIDEKKKRKA	-1.48
HMKEIPTKKGDMLEIYEANGKYILKYPTFNITMPEVVKEIPKEAVDSYLAGKHDGEELINYANFGFWKS	-0.0757
HMKEKDAYTSEILDTLKNAKLLVVEGTVYPLLTRLKNDGLLNYRWEESTSGPPRKYYGLTDEG	-0.704
HMKEKIIKEPYDLFTTDKIGQALEVQALLARQGIKVQRRVDGTKSTLFLENYTQSEKDQALLAVVRSGIV	-0.719
HMKEKPLWAIRITELREEHYFTQTDVSKALGIAQTTYAGYETGRHEPDFETMIKIADIYKVSLDYLIGR	-2.03
HMKELFETLPDVLDAKLLASALSISKAGAYQLLNRPDFPTLQVGGWKLVTKQKLALWMEQHTN	-3.39

Sequence	soluble fraction (log2)
HMKELFGQRLREQRLKQNLTLEQLAEKANLSPNYVGMVERGLKEPGLATIVKLLNGLNVSADTLL	-0.446
HMKELLTKQQREEILETVKTKTPKDFGYTAEHWTTGFLGKWIEEHYEVEYKSKTSLYLVFKKASFTYHKPG	0.24
HMKELTARQIEILDFITNYEWRHGYWPSIRNIQVQFSYKSTNAVMGHLRALERKGAIERIPGQARTFRIH	-3.53
HMKEPFETMPDVMDAKQIAEALQISKAGAYNLLNSPDFPTLRIGGRKLVMKNELVEWLKSHTNRK	0.428
HMKEPPTLEEIKNYFASKLSTELESEKFFNYFESNGWLVGGKTPMKNWQSAANNWLINMSKFN	-0.853
HMKEPQLGPVRKWSDQTGNFGIEAQFVKREGDNILLKRADQRTISIPLEKLSDADQEHLKQEEQKQAME	-0.333
HMKEQLEAYVNRLFADAALTIRNAEVRQEILQHALDRYDDLIASGKTEQEAYDETVSGIGDVSGLYEHK	-0.584
HMKETKVIHVHLIFKKTSRFFGSISAIYSEFTAEEIGITEETLRHKGLSDGVSFATKKAIIQQGVLIR	-2.78
HMKEVDSESAFAERGISEVWIPALQKMGILTLEALDAANPNKVFNDLGGMRKKLKIDAAMPTKDEVTAWIQ	0.0576
HMKEVKPSDFFLSKLDEDHNLIEKFNALSSFKQKEFIEYIDSAKQEKTKHDRFEKIKPILLSNIGLNDKYR	-0.0777
HMKEVVVPDYFLKQLQKNKKAFITFNNFSPSHKREYVEWITEAKTEETKNRRMKSAIEWMSEGKSRNWKYI	-0.589
HMKFGETLIDLRKRNGLTQEELAAKLYVTRQAVSRWERGEVTPGIDMLKLIANVLNEPVAHLLDW	-2.14
HMKFNRPMSEILQEWENKLGTTSDAELAGLIGVVTMTINRWRKNETKPDLSALNRYDRIVNLVVNNIKQL	-2.27
HMKFPPELVEFIEGLSLLKPPLNYATVHRRAEKLAIKKGWASPSYSTVRNIIRKLSPALTTLAHEG	-2.57
HMKGAADPAIKQKVLDYLDTVEKAKSKEIAKAISEEKSAVDLAVKELAFEDKVEYLYITTTFVALKGKVA	-1.51
HMKGALQIAIEEGFNWNLDKKYWNIVQSTVIAKRLGLKTTSGLKEAIEGMGGEYKRTKKARGYLVPTFKD	-3.98
HMKGDYWIIDLDKNYQYAIISEPDRQYLWILSRSPNMDTQTLETLKEKIRSKGFDLTYLKQTL	-1.53
HMKGHQASTTWISERVKDIIKEDPTLGARKLQKRLEIHYNIELSYFKVWSGKNLQWMIFMVL	0.0846
HMKGSYTVKSGDNLWSIARKFYGGSGSTWTKIYSANKSTIESTARRYGRSSSDNGHWIYPGTVLVIP	-0.924
HMKGVSFEEIERAVRTAQNPEADETAQQHAGMVFSRMEGNELFDKLVQSSSTIGKKITGLMDYYL	-0.239
HMKGYIGESKARNIALKKAPGASITKFEFDKDDGIAVYEVELRKGIYEYELKINAVTGAIIEFEKDIE	-2.2
HMKHKYWEIKERIKKDILNEVYKKGESIPSERDLAGIYDVTRVTVQKAMAMLVQEGYIERIHGKGMFVLKN	-2.32
HMKHRFVVGEVLSIGKLQHEITLKTAQGERKFQLDKQDLPASIQDGAKVRAELNEAGRVIDVHPLK	-0.0848
HMKHYMKITDISLQTRDKNRVNVSVDGKYRFSLDVFQVGELGLKVGREYTDEELTALEDESQFG	-1.11
HMKIATIELVKEAVKSKLGKFTKRDIMELVPSVGKTTIENMLKQLIGEGYIERHGKGRATFYVK	-0.761
HMKIDANTFTSIEKQLFVLLSKTPTPMGSIFVALAKEDKEAVWEVIHFLEAENRLIMNEDGTIQL	-2.14

Sequence	soluble fraction (log2)
HMKIDEVSFAYIERTLFSMLGKLPTPVNKVIATIGEEKKETIWEVIRFLESENKLITNEDGTLQL	-2.46
HMKIDNIIIYITGGVKKEGVYELPDGSRISDAIEQAEGLKANADTSSINLAYKLEDGMKIKIPLQGEN	-0.181
HMKIDNPEYQKIMDMIPYFFQTRNYDEAIEALSYVIEQEPSFSEAYNKRATFYFMMGDFENSMKDIESTLA	-0.288
HMKIEEVIEKLKTDSIISRKEYEDIVRQINPNLSDRTIFWQLAKLQDMGVLQKIGQNSFHVRN	-0.183
HMKIERKGDESYLSFVERATSALSDGLIDYQQWGRAVVGEDLYSEENTRRIAKFFAQFIQNLEND	-2.62
HMKIKAKYTTDFGIRIYAPKPGKNYWRISYVDLDGKLRDTTATSEKTALDKSAEIEVLLRNN	-2.2
HMKILALETSAKAVSAAVSENGRILASGYQDTGLTHSRTLMPIVEHILKNTDLKLSDMDAIAVAVGPG	0.144
HMKIMSLSERHQKILELLKVNGIVSVNSLSRQLNVSSVTIRKDLGLLEEKKLLYRSHGGAIQID	-3.35
HMKINYNEFLRRFLGEKEGDIIEMETGKRIGTHKGYWFHTIGQRKGLGLGGGPWFVIRKDIDENIIYVSHG	-1.3
HMKIPGIGDVYAILARVYSGPQFTWIEAGFPEDDTKAYSYLHTAIRKGSAIAILQAMRTSGALTPTIEKE	-0.0245
HMKIPPIMFVRAIMVAGRQSMAIMDIEGVGTGIIVRSGYSFSNGEGKVVRIGPDKVTVNWSGKHLDLAPG	-3.8
HMKIPQFAVIKQYLEQQIKTAQWAPGRQIPTEQSLADTFSVSRMTARRAVQQLADAGLLERTQGSGTFVAD	-0.162
HMKISDTITEKILTDNNFSMELAKKIGIQQGSLLSSIRRNRDSRILRLWEAVMFYKEQGYTEEEIFTDY	-2.61
HMKISELAKKVIASGRVTQWAKHPHIYFVNGMRKVAIELDVNGVFSISMRYYPYDPADRELVENLIRGD	-2.67
HMKIVQHQLQLPVHVAGKFKGMFYKSDFVMSEDYDDDGNMILAVRLPLVDWNKFLKRTDNELSQYIKVTP	-1.64
HMKKALTAEQEARVRELYFRGINYYSANRYQDAIAEWRKVLAIDPNHEKAKNNIRQTLILLK	-1.26
HMKKDNLKKIKSIDEDIENELFKLGIYHFEQISIWSSKNAEWIENFLNLPNYVRANQWVEQAKILK	-1.57
HMKKDRKKMLKEGIVLFEKILRGMELSPTSEPLKKVLTSFNIQNKEDLYVKLGAGVISSEEVIKELKKK	-0.0286
HMKKILIVTNRSAGMVVYTIPEEGIRREFTPGETKKIPFEELEKLAYLSGGRTLMENFLKIVDTETTEELG	-2.24
HMKKIYEEVSEAILTMIKNGTLKPGDKLLPVHQLAEQFQVGRSAVREALSALRAMGLIEMKQGEGTYVKNF	-1.52
HMKKKVDSENLLLDILKQMQPQASTNVLRKMLTNQRISVDDQIIHRAKHVVQEGQTVEIHPKP	-0.0451
HMKKLPEKFDYNEISGLRIEAQQKLNEFQPLNIGQASRISGVTPADISVLLVYLEQLKYSNPDLFFKLNPD	-1.52
HMKKLTAEEIQEAKDILEKIQEIPNFKKIFGDDTIKALENSTKTGVLLPDNIISKIHTLMIRFGIK	-0.202
HMKKMEEEFALFNAWVDRRLGIPLAAYKENQMQRRILTIMENSGAKTLREYQQLIEGDEGVRAAFLAHIT	-2.15
HMKKPIYLTIANDIEKKIFNNDYPKNERLPSERNLAEEYGVTRMTIRNSIEYLVSKGLLEKRLGSGNYVKR	-1.55
